Where no end group is shown, it is not given here.

For one experiment, the target named is T1, human TAP1 protein (human, UniProt Q03518 1-748).
T1 construct: It is an intracellular protein; also called recombinant TAP1
T1 sequence: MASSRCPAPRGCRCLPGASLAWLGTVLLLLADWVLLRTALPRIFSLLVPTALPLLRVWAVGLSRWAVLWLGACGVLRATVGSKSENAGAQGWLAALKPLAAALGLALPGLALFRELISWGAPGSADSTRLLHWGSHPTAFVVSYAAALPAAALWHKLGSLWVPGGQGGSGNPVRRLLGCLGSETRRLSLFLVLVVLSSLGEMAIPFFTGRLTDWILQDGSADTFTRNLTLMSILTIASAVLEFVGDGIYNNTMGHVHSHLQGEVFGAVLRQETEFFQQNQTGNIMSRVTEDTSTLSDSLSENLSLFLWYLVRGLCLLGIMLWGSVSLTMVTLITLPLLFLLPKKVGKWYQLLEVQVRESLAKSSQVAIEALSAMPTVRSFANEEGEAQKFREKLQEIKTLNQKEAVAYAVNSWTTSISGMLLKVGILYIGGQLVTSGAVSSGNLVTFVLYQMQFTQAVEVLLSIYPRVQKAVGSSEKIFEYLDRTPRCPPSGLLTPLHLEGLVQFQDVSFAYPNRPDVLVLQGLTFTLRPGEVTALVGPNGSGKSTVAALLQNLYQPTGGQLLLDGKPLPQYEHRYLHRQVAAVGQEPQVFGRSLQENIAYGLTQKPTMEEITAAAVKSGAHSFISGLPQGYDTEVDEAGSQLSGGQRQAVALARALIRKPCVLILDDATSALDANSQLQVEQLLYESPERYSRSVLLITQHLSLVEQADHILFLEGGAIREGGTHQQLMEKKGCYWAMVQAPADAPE
Nature of the experiment: IHC on sections of cell blocks of 293T, 293T-TAP1 and 293T-TAP2 cells. From the text:
anti-TAP1 rabbit monoclonal primary antibodies were directed against the sequence […] (SEQ ID NO: 23), which represents amino acids 625-640 of human TAP1. The peptide was synthesized and covalently conjugated to keyhole limpet haemocyanin (KLH) carrier protein. Rabbits were immunized with KLH-conjugated peptide with complete Freund's adjuvant followed by a series of booster injections of the same immunogen in incomplete Freund's adjuvant. The rabbit that produced the best positive polyclonal antibody by immunohistochemistry (IHC) was chosen for monoclonal development. IHC staining was performed on a BenchMark automated slide stainer at Roche Diagnostics in Tucson, AZ. The staining procedure included deparaffinization, pretreatment using standard Cell Conditioning 1, incubation with antibody (TAP1: 0.925 μg/mL) at 36° C. for 16 min. […] TAP1 was detected by immunohistochemistry (IHC) using OptiView Universal DAB detection kit (Ventana).
Rabbit monoclonal antibody S14H22L21 was applied onto formalin fixed paraffin embedded tissue samples to assess the staining patterns of the antibody by IHC as described in Example 1. […] Cell lysates from HEK293T cells, HEK293T cells expressing TAP1, and HEK293T cells expressing TAP2 were analyzed alongside lysates from a negative control cell line (RPMI6226) and two positive control cell lines (HDLM2 and U266B1).

The target in the next experiment is T2, human TAP2 protein (human, UniProt Q03519 1-686).
T2 construct: It is an intracellular protein; also called recombinant TAP2
T2 sequence: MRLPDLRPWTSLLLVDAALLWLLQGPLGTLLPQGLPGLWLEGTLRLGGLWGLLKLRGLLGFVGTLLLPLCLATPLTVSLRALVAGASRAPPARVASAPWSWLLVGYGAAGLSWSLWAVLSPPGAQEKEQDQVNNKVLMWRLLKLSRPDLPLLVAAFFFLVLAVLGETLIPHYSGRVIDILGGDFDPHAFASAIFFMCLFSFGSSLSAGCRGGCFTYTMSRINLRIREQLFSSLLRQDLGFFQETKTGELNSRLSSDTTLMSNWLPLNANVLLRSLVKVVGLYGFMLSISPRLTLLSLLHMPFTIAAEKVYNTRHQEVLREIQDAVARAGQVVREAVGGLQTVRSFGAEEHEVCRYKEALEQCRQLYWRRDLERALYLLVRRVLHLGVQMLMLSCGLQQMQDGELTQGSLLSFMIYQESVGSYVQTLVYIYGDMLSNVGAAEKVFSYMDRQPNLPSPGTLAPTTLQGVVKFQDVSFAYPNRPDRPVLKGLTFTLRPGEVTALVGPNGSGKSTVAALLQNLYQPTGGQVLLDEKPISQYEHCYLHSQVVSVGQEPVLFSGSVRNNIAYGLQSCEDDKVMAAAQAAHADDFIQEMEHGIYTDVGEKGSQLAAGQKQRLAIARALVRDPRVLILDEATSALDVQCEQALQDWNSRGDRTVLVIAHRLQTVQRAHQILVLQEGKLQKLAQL
Nature of the experiment: western blot of lysates of HEK293T cells expressing TAP2. The procedure: Rabbit monoclonal antibody S14H22L21 was applied onto formalin fixed paraffin embedded tissue samples to assess the staining patterns of the antibody by IHC as described in Example 1. Tissue samples included the positive and negative controls listed in Example 1, 8 ccRCC tissues, and a tour of tumor array (see FIGS. 4A-4B and 5A-5C). Western blot analysis was carried out to assess the specificity of S14H22L21. Cell lysates from HEK293T cells, HEK293T cells expressing TAP1, and HEK293T cells expressing TAP2 were analyzed alongside lysates from a negative control cell line (RPMI6226) and two positive control cell lines (HDLM2 and U266B1).

The target of experiment [1] is T3, human TAP1 peptide DGKPLPQYEHRYLHR (human, also: conjugated to KLH for immunisation).
T3 construct: Synthetic peptide, conjugated to KLH for immunisation; also called immunogenic peptide
T3 peptide: DGKPLPQYEHRYLHR
Nature of the experiment: raised against the peptide; ELISA screen of antibody-expressing cells on the immunogenic peptide (Example 1).

B1: rabbit anti-human TAP1 monoclonal antibody S14H22L21 (antibody, V domains shown)
VH: QSVKESEGGLFKPTDTLTLTCTVSGFSLSSYEVIWVRQAPGKGLEWIGNIGWRDTTFYANWAKSRSTFTRDTNLNTVTLKMTSLTAADTATYFCARDNGYFGIDYWGPGTLVTVSS
VL: DIVMTQTPASVEAAVGGTVTIKCQASQSISNYLAWYQQKPGQPPKLLIYKASTLASGVPSRFSGSGSGTQFTLTISGVQCDDAATYYCQQDFNYRNIENVFGGGTGVVVK
notes: Recombinant rabbit monoclonal, purified on Protein A; also called clone S14H22L21; TAP1 antibody
For B1, the binding result with human TAP1 protein is “binds”; with human TAP2 protein, “no binding”; in experiment [1], “binds”.

(Values after US20260016475A1 (VENTANA MEDICAL SYSTEMS, published 2026).)
